The source of these data is patent US20230346885A1 (published 2023).

What all share (assay): binding, other
Assay [1] deals with T1, PAEP peptide on HLA (human).
T1 peptide: TLLDTDYDNFL

For assay [2], the target named is T2, PAEP peptide on HLA (human).
T2 peptide: MMCQYLARV

For assay [3], the target named is T3, PIWIL1 peptide on HLA (human).
T3 peptide: SLSNRLYYL

Assay [4] has as its target T4, PIWIL1 peptide on HLA (human).
T4 peptide: SLIQNLFKV

B1: TCR of SEQ ID NOs 483 and 484 (TCR, V domains shown)
Valpha: ELKVEQNPLFLSMQEGKNYTIYCNYSTTSDRLYWYRQDPGKSLESLFVLLSNGAVKQEGRLMASLDTKARLSTLHITAAVHDLSATYFCAVGAYSGAGSYQLTFGKGTKLSVIP
Vbeta: NAGVIQNPRHLVRRRGQEARLRCSPMKGHSHVYWYRQLPEEGLKFMVYLQKENIIDESGMPKERFSAEFPKEGPSILRIQQVVRGDSAAYFCASSKYPAGEANEKLFFGSGTQLSVL
B1: the binding result in assay [1] is on record as “recognises”.

B2: TCR of SEQ ID NOs 481 and 482 (TCR, V domains shown)
Valpha: KQEVTQIPAALSVPEGENLVLNCSFTDSAIYNLQWFRQDPGKGLTSLLLIQSSQREQTSGRLNASLDKSSGRSTLYIAASQPGDSATYLCAATDSWGKLQFGAGTQVVVTP
Vbeta: DTGVSQNPRHKITKRGQNVTFRCDPISEHNRLYWYRQTLGQGPEFLTYFRNEAQLEKSRLLSDRFSAERPKGSFSTLEIQRTEQGDSAMYLCASSLFSRGTNYGYTFGSGTRLTVV
On to B2, for which, in assay [1], the binding result is given as “recognises”.

B3: TCR of SEQ ID NOs 475 and 476 (TCR, V domains shown)
Valpha: QKEVEQNSGPLSVPEGAIASLNCTYSDRGSQSFFWYRQYSGKSPELIMFIYSNGDKEDGRFTAQLNKASQYVSLLIRDSQPSDSATYLCAVDGSYIPTFGRGTSLIVHP
Vbeta: NAGVTQTPKFRVLKTGQSMTLLCAQDMNHEYMYWYRQDPGMGLRLIHYSVGEGTTAKGEVPDGYNVSRLKKQNFLLGLESAAPSQTSVYFCASSSGGADTGELFFGEGSRLTVL
B3: the binding result in assay [2] was “recognises”.

B4: TCR of SEQ ID NOs 497 and 498 (TCR, V domains shown)
Valpha: KQEVTQIPAALSVPEGENLVLNCSFTDSAIYNLQWFRQDPGKGLTSLLLIQSSQREQTSGRLNASLDKSSGRSTLYIAASQPGDSATYLCAARYNFNKFYFGSGTKLNVKP
Vbeta: NAGVTQTPKFQVLKTGQSMTLLCAQDMNHEYMYWYRQDPGMGLRLIHYSVGEGTTAKGEVPDGYNVSRSTTEDFPLRLLSAAPSQTSVYFCASSYTPGPSHEQYFGPGTRLTVT
Turning to B4, the binding result in assay [3] is recorded as “recognises”.

B5: TCR of SEQ ID NOs 499 and 500 (TCR, V domains shown)
Valpha: KQEVTQIPAALSVPEGENLVLNCSFTDSAIYNLQWFRQDPGKGLTSLLLIQSSQREQTSGRLNASLDKSSGRSTLYIAASQPGDSATYLCAVIDRAYSGAGSYQLTFGKGTKLSVIP
Vbeta: NAGVTQTPKFRILKIGQSMTLQCTQDMNHNYMYWYRQDPGMGLKLIHYSVGAGITDQGEVPNGYNVSRSTTEDFPLRLLSAAPSQTSVYFCASSLGVSYNEQFFGPGTRLTVL
With B5, the binding result in assay [3] is “recognises”.

B6: TCR of SEQ ID NOs 503 and 504 (TCR, V domains shown)
Valpha: QKEVEQNSGPLSVPEGAIASLNCTYSDRGSQSFFWYRQYSGKSPELIMFIYSNGDKEDGRFTAQLNKASQYVSLLIRDSQPSDSATYLCAVMGNTDKLIFGTGTRLQVFP
Vbeta: NAGVTQTPKFQVLKTGQSMTLQCAQDMNHEYMSWYRQDPGMGLRLIHYSVGAGITDQGEVPNGYNVSRSTTEDFPLRLLSAAPSQTSVYFCASSYGVGSPLHFGNGTRLTVT
Turning to B6, in assay [4], the binding result was “recognises”.

B7: TCR of SEQ ID NOs 507 and 508 (TCR, V domains shown)
Valpha: QKEVEQNSGPLSVPEGAIASLNCTYSDRGSQSFFWYRQYSGKSPELIMFIYSNGDKEDGRFTAQLNKASQYVSLLIRDSQPSDSATYLCAVKTSYDKVIFGPGTSLSVIP
Vbeta: NAGVTQTPKFQVLKTGQSMTLQCAQDMNHEYMSWYRQDPGMGLRLIHYSVGAGITDQGEVPNGYNVSRSTTEDFPLRLLSAAPSQTSVYFCASSYGAGAFYTFGSGTRLTVV
With B7, the binding result in assay [4] is recorded as “recognises”.

B8: TCR of SEQ ID NOs 477 and 478 (TCR, V domains shown)
Valpha: QKEVEQNSGPLSVPEGAIASLNCTYSDRGSQSFFWYRQYSGKSPELIMSIYSNGDKEDGRFTAQLNKASQYVSLLIRDSQPSDSATYLCAVSGSARQLTFGSGTQLTVLP
Vbeta: DGGITQSPKYLFRKEGQNVTLSCEQNLNHDAMYWYRQDPGQGLRLIYYSQIVNDFQKGDIAEGYSVSREKKESFPLTVTSAQKNPTAFYLCASSPFADDSYGYTFGSGTRLTVV
For B8, in assay [2], the binding result is “recognises”.
